Assay results taken from PMC5947572, “The C‐terminal cytosolic domain of the human zinc transporter ZnT8 and its diabetes risk variant” (The Febs Journal, 2018).

Columns and labels:
[1] = target: the molecule itself; assay: native gel or EMSA; native PAGE of the purified proteins; conditions not given
[2] = target: the molecule itself; assay: MST; homodimerisation (dimer to monomers); 100 nM Red-NHS-labelled apo-protein titrated with unlabelled apo-protein of the same variant (180 uM-5.5 nM ZnT8cR or 124 uM-3.8 nM ZnT8cW); 10 mM potassium phosphate pH 8, 60 mM NaCl, 20 mM sucrose, 100 uM TCEP, 1 mM EDTA, 0.05% Tween-20; 25 °C; Monolith NT.115

B1: R325 variant of ZnT8 CTD (aa267-369) (domain or fragment, human, UniProt Q8IWU4 267-369, looked up)
chain: LKDFSILLMEGVPKSLNYSGVKELILAVDGVLSVHSLHIWSLTMNQVILSAHVATAASRDSQVVRREIAKALSKSFTMHSLTIQMESPVDQDPDCLFCEDPCD
modifications: amine-reactive Red-NHS dye (Monolith NT.115 labelling kit) on the labelled copy in MST; the titrated copy unlabelled
notes: human zinc transporter ZnT8 (SLC30A8), C-terminal cytosolic domain, residues 267-369, Arg at position 325; numbers count on the full-length human ZnT8 long isoform (Ensembl transcript SLC30A8-002); A TEV protease cleavage site stands between the N-terminal hexahistidine tag and the domain (vector pET6H); Calculated monomer mass with tag and TEV site 13.3 kDa; also called ZnT8cR; apo-ZnT8cR; …
- stoichiometry N [1]: 2
- Kd [2]: 4.3 µM

B2: W325 variant of ZnT8 CTD (aa267-369) (domain or fragment, human, UniProt Q8IWU4 267-369, looked up)
chain: LKDFSILLMEGVPKSLNYSGVKELILAVDGVLSVHSLHIWSLTMNQVILSAHVATAASWDSQVVRREIAKALSKSFTMHSLTIQMESPVDQDPDCLFCEDPCD
modifications: amine-reactive Red-NHS dye (Monolith NT.115 labelling kit) on the labelled copy in MST; the titrated copy unlabelled
notes: numbers count on the full-length human ZnT8 long isoform (Ensembl transcript SLC30A8-002); A TEV protease cleavage site stands between the N-terminal hexahistidine tag and the domain (vector pET6H); also called ZnT8cW; apo-ZnT8cW; source: apo form made with TCEP and EDTA; not shown: His6, N-terminal, kept
- stoichiometry N [1]: 2
- Kd [2]: 1.8 µM
